Experimental findings from patent publication US20240018226A1 are described below.

The test has as its target pHrodo-labeled 4RON human tau P301L soluble oligomer (human), P10636. Kind of test: cell-based or functional assay.

Sequence of pHrodo-labeled 4RON human tau P301L soluble oligomer (human), P10636 (P10636 other isoform, or with tags, fused parts or gaps P301L P301L): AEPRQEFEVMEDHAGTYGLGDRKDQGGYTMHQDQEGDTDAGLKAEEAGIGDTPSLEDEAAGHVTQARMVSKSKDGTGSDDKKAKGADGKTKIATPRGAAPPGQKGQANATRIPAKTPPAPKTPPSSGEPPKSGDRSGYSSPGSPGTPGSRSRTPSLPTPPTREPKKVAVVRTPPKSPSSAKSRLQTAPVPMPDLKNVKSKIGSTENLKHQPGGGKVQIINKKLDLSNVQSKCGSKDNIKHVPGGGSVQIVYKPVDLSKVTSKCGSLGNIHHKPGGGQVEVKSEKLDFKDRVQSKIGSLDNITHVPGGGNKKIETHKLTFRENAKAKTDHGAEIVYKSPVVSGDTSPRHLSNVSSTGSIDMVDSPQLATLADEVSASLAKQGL

B1: mouse 3D6 (antibody, V domains shown)
VH: EVQLQQSGADLVRPGALVKLSCKASGFNIKDYYLHWVRQRPEQGLEWIGWIDPENGDTVYDPKFQGKATITADTSSNTAYLQLGSLTSEDTAVYFCSTLDFWGQGTTLTVSS
VL: not shown
modifications: here or on the partner: labeled with pHrodo Red succinimidyl ester (sites not given)
On to B1, for which the IC50 of inhibition of tau internalization into B103 neuroblastoma cells (pHrodo Texas Red mean fluorescence intensity, FACS) came to 9 nM.
